Data published in patent publication US20250019439A1 (Adimab, published 2025).

Experiments:
ADI-48576 = target: T1, ADI-48576; assay: SPR Carterra, yeast anti-ID
T1 construct: pH-dependent anti-CD3 antibody made in CHO cells
Summary of the method: (§1)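 Kinetic constants come from a 1:1 binding-model fit of double-referenced, drift-corrected sensorgrams. Anti-CD3 antibodies (100 nM) were captured via immobilized anti-human Fc, and anti-idiotype binding was recorded at 25° C in HBSTE, with dissociation monitored for 300s.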

ADI-48592 = target: T2, ADI-48592; assay: SPR Carterra, yeast anti-ID
T2 construct: pH-dependent anti-CD3 antibody made in CHO cells
Summary of the method: as §1

CTL-62227 = target: T3, CTL-62227; assay: SPR Carterra, yeast anti-ID
T3 construct: also called odronextamab
Summary of the method: as §1

CTL-62228 = target: T4, CTL-62228; assay: SPR Carterra, yeast anti-ID
T4 construct: also called glofitamab
Summary of the method: as §1

CTL-62240 = target: T5, CTL-62240; assay: SPR Carterra, yeast anti-ID
T5 construct: also called ONO-4685
Summary of the method: as §1

ADI-50024 = target: T6, ADI-50024; assay: SPR Carterra avidity, yeast anti-ID
T6 construct: anti-CD3 antibody made in CHO cells, captured by anti-human Fc
Summary of the method: as §1

ADI-70326 = target: T7, ADI-70326; assay: SPR Carterra avidity, yeast anti-ID
T7 construct: anti-CD3 antibody made in CHO cells, captured by anti-human Fc
Summary of the method: as §1

ADI-70327 = target: T8, ADI-70327; assay: SPR Carterra avidity, yeast anti-ID
T8 construct: anti-CD3 antibody made in CHO cells, captured by anti-human Fc
Summary of the method: as §1

ADI-70330 = target: T9, ADI-70330; assay: SPR Carterra avidity, yeast anti-ID
T9 construct: anti-CD3 antibody made in CHO cells, captured by anti-human Fc
Summary of the method: as §1

ADI-67450 = target: T10, ADI-67450; assay: SPR Carterra avidity, yeast anti-ID
T10 construct: anti-CD3 antibody made in CHO cells, captured by anti-human Fc
Summary of the method: as §1

ADI-67445 = target: T11, ADI-67445; assay: SPR Carterra avidity, yeast anti-ID
T11 construct: anti-CD3 antibody made in CHO cells, captured by anti-human Fc
Summary of the method: as §1

ADI-67447 = target: T12, ADI-67447; assay: SPR Carterra avidity, yeast anti-ID
T12 construct: anti-CD3 antibody made in CHO cells, captured by anti-human Fc
Summary of the method: as §1

ADI-26909 = target: T13, ADI-26909; assay: SPR Carterra avidity, yeast anti-ID
T13 construct: anti-CD3 antibody made in CHO cells, captured by anti-human Fc
Summary of the method: as §1

ADI-26913 IgG = target: T14, ADI-26913 IgG; assay: SPR Carterra avidity, yeast anti-ID
T14 construct: anti-CD3 IgG
Summary of the method: as §1

ADI-26921 IgG = target: T15, ADI-26921 IgG; assay: SPR Carterra avidity, yeast anti-ID
T15 construct: anti-CD3 IgG
Summary of the method: as §1

ADI-26916 IgG = target: T16, ADI-26916 IgG; assay: SPR Carterra avidity, yeast anti-ID
T16 construct: anti-CD3 IgG
Summary of the method: as §1

ADI-26912 = target: T17, ADI-26912; assay: SPR Carterra avidity, yeast anti-ID
T17 construct: anti-CD3 antibody made in CHO cells, captured by anti-human Fc
Summary of the method: as §1

ADI-26924 = target: T18, ADI-26924; assay: SPR Carterra avidity, yeast anti-ID
T18 construct: anti-CD3 antibody made in CHO cells, captured by anti-human Fc
Summary of the method: as §1

ADI-26915 = target: T19, ADI-26915; assay: SPR Carterra avidity, yeast anti-ID
T19 construct: anti-CD3 antibody made in CHO cells, captured by anti-human Fc
Summary of the method: as §1

ADI-26943 = target: T20, ADI-26943; assay: SPR Carterra avidity, yeast anti-ID
T20 construct: anti-CD3 antibody made in CHO cells, captured by anti-human Fc
Summary of the method: as §1

ADI-48587 = target: T21, ADI-48587; assay: SPR Carterra avidity, yeast anti-ID
T21 construct: pH-dependent anti-CD3 antibody made in CHO cells
Summary of the method: as §1

ADI-48650 = target: T22, ADI-48650; assay: SPR Carterra avidity, yeast anti-ID
T22 construct: pH-dependent anti-CD3 antibody made in CHO cells
Summary of the method: as §1

ADI-74965 = target: T23, ADI-74965; assay: SPR Carterra avidity, yeast anti-ID
T23 construct: pH-dependent anti-CD3 antibody made in CHO cells
Summary of the method: as §1

ADI-74966 = target: T24, ADI-74966; assay: SPR Carterra avidity, yeast anti-ID
T24 construct: pH-dependent anti-CD3 antibody made in CHO cells
Summary of the method: as §1

ADI-74967 = target: T25, ADI-74967; assay: SPR Carterra avidity, yeast anti-ID
T25 construct: pH-dependent anti-CD3 antibody made in CHO cells
Summary of the method: as §1

ADI-74968 = target: T26, ADI-74968; assay: SPR Carterra avidity, yeast anti-ID
T26 construct: pH-dependent anti-CD3 antibody made in CHO cells
Summary of the method: as §1

ADI-76357 = target: T27, ADI-76357; assay: SPR Carterra avidity, yeast anti-ID
T27 construct: anti-CD3 antibody made in CHO cells, captured by anti-human Fc
Summary of the method: as §1

ADI-76358 = target: T28, ADI-76358; assay: SPR Carterra avidity, yeast anti-ID
T28 construct: anti-CD3 antibody made in CHO cells, captured by anti-human Fc
Summary of the method: as §1

ADI-76359 = target: T29, ADI-76359; assay: SPR Carterra avidity, yeast anti-ID
T29 construct: anti-CD3 antibody made in CHO cells, captured by anti-human Fc
Summary of the method: as §1

ADI-76360 = target: T30, ADI-76360; assay: SPR Carterra avidity, yeast anti-ID
T30 construct: anti-CD3 antibody made in CHO cells, captured by anti-human Fc
Summary of the method: as §1

ADI-76361 = target: T31, ADI-76361; assay: SPR Carterra avidity, yeast anti-ID
T31 construct: anti-CD3 antibody made in CHO cells, captured by anti-human Fc
Summary of the method: as §1

ADI-76362 = target: T32, ADI-76362; assay: SPR Carterra avidity, yeast anti-ID
T32 construct: anti-CD3 antibody made in CHO cells, captured by anti-human Fc
Summary of the method: as §1

ADI-22523 Fab = target: T33, ADI-22523 Fab; assay: BLI; tip anti-ID IgG, solution ADI-22523 Fab
T33 construct: anti-CD3 Fab by papain digestion of the IgG
Summary of the method: (§2)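 Anti-ID IgG was captured on AHC biosensors, equilibrated in assay buffer for 30 min, then baselined for 60 s. KD = koff/kon came from a 1:1 binding fit.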

ADI-22523 IgG = target: T34, ADI-22523 IgG; assay: BLI; tip anti-ID IgG, solution ADI-22523 IgG
T34 construct: anti-CD3 IgG
Summary of the method: as §2

ADI-26906 IgG = target: T35, ADI-26906 IgG; assay: SPR Carterra avidity, yeast anti-ID, *koff limit
T35 construct: anti-CD3 IgG
Summary of the method: as §1

ADI-26919 = target: T36, ADI-26919; assay: SPR Carterra avidity, yeast anti-ID, *koff limit
T36 construct: anti-CD3 antibody made in CHO cells, captured by anti-human Fc
Summary of the method: as §1

ADI-26920 IgG = target: T37, ADI-26920 IgG; assay: SPR Carterra avidity, yeast anti-ID, *koff limit
T37 construct: anti-CD3 IgG
Summary of the method: as §1

T13 sequence (VH, as listed by the source limits assumed, chain 1 of 2): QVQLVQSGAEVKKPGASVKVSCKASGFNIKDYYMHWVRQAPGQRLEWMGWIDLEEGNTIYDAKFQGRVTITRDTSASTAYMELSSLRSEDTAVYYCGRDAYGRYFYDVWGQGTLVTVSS
T13 sequence (VL, as listed by the source limits assumed, chain 2 of 2): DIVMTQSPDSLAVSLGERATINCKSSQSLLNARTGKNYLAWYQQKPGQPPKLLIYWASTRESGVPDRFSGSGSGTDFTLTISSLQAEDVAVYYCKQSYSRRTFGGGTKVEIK
T18 sequence (VH, as listed by the source, chain 1 of 2): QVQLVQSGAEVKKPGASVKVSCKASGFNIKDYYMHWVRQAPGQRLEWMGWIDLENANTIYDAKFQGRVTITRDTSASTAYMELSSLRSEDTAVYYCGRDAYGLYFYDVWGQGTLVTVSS
T18 sequence (VL, as listed by the source, chain 2 of 2): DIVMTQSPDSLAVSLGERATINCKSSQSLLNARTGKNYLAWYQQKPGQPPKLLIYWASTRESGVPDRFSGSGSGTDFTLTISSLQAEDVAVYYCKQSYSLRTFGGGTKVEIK
T14 sequence (VH, as listed by the source limits assumed, chain 1 of 2): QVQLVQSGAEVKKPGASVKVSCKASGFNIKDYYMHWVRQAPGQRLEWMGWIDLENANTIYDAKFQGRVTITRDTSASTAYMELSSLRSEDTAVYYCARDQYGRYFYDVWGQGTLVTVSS
T8 sequence (VH, as listed by the source limits assumed, chain 1 of 2): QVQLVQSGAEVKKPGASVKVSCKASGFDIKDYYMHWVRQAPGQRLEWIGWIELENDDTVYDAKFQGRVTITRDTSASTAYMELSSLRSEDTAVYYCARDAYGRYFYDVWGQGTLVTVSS
T8 sequence (VL, as listed by the source limits assumed, chain 2 of 2): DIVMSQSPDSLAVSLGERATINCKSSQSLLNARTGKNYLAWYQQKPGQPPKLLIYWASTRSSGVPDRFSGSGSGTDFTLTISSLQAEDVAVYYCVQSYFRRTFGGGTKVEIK
T7 sequence (VH, as listed by the source limits assumed, chain 1 of 2): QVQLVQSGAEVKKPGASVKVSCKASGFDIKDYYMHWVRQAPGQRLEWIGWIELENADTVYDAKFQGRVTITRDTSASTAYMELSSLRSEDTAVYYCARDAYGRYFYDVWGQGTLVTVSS
T29 sequence (VH, as listed by the source, chain 1 of 2): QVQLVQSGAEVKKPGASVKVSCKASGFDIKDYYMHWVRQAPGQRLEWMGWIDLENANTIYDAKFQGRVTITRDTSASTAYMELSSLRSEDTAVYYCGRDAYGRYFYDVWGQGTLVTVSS
T31 sequence (VH, as listed by the source, chain 1 of 2): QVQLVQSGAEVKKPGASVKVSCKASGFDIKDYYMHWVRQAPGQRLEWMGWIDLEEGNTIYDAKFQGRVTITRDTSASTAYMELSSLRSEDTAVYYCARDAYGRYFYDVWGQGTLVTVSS
T12 sequence (VH, as listed by the source limits assumed, chain 1 of 2): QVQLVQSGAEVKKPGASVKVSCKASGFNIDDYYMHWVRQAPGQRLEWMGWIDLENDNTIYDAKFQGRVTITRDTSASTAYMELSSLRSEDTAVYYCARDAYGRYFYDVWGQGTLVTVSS
T26 sequence (VH, as listed by the source, chain 1 of 2): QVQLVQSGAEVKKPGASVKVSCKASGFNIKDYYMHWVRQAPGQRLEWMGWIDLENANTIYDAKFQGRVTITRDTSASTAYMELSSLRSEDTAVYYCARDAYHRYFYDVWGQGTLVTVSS
T26 sequence (VL, as listed by the source, chain 2 of 2): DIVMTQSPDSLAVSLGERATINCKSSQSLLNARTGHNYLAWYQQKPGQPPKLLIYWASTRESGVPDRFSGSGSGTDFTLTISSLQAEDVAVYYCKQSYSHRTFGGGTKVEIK
T23 sequence (VL, as listed by the source, chain 2 of 2): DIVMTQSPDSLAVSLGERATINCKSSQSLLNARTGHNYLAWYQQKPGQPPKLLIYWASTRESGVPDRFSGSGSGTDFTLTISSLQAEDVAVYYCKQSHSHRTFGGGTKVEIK
T20 sequence (VH, as listed by the source, chain 1 of 2): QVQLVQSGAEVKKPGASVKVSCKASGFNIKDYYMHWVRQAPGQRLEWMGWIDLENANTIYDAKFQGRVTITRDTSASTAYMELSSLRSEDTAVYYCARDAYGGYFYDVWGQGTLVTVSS
T20 sequence (VL, as listed by the source, chain 2 of 2): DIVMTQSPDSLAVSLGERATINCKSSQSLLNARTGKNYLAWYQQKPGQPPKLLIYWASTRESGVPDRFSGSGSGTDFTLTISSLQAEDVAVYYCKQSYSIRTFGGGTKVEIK
T2 sequence (VH, as listed by the source, chain 1 of 2): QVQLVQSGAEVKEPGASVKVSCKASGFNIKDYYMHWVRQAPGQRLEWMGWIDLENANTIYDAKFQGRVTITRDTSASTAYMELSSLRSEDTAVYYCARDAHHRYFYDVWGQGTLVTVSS
T2 sequence (VL, as listed by the source, chain 2 of 2): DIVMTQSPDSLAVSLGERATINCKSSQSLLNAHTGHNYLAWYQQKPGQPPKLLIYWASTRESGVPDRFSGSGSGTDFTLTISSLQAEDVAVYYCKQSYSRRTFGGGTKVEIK
T3 sequence (VH, as listed by the source, chain 1 of 2): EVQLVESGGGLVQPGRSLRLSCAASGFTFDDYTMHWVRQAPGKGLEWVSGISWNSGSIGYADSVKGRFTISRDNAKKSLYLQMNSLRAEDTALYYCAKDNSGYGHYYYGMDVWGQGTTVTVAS
T3 sequence (VL, as listed by the source, chain 2 of 2): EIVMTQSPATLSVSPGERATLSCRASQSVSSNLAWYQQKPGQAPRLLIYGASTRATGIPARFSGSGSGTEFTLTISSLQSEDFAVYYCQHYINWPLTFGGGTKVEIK
T6 sequence (VH, as listed by the source limits assumed, chain 1 of 2): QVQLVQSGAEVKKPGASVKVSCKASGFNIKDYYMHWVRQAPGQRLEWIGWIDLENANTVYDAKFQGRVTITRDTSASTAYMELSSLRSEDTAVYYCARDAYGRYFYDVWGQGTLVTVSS
T22 sequence (VH, as listed by the source, chain 1 of 2): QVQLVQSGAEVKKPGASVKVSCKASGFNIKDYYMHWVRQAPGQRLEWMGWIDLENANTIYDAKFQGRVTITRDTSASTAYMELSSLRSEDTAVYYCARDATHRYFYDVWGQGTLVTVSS
T22 sequence (VL, as listed by the source, chain 2 of 2): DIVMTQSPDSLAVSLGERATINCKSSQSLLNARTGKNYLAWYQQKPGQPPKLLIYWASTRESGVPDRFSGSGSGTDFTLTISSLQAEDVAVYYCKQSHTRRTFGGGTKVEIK
T11 sequence (VH, as listed by the source limits assumed, chain 1 of 2): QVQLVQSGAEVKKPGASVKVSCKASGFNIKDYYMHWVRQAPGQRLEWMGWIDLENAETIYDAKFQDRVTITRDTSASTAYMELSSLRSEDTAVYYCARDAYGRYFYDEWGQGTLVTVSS
T16 sequence (VH, as listed by the source, chain 1 of 2): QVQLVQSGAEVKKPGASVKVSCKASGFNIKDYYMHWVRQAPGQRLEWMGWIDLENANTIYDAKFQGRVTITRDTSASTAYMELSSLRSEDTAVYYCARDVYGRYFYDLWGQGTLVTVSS
T32 sequence (VH, as listed by the source, chain 1 of 2): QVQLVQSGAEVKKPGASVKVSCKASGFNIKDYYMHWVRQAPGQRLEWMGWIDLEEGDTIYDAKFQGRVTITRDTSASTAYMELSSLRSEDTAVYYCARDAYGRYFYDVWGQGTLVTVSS

B1: ADI-34133 (antibody, V domains shown)
VH: QVQLVQSGAEVKKPGSSVKVSCKASGGTFSSYAISWVRQAPGQGLEWMGGIIPIFGTANYAQKFQGRVTITADESTSTAYMELSSLRSEDTAVYYCARGAPNYYGSGGYDDGWFDPWGQGTLVTVSS
VL: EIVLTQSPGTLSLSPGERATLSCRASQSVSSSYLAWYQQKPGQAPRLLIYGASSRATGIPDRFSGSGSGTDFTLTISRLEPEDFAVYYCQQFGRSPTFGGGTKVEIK
notes: anti-ID IgG
ADI-48576
  binding result: no binding (tested: up to 200 nM)
ADI-48592
  binding result: no binding (tested: up to 200 nM)
CTL-62227
  binding result: no binding (tested: up to 200 nM)
CTL-62228
  binding result: no binding (tested: up to 200 nM)
CTL-62240
  binding result: no binding (tested: up to 200 nM)
ADI-50024
  Kd: 1.1 nM
ADI-70326
  binding result: binds
ADI-70327
  binding result: binds
ADI-70330
  Kd: 1.9 nM
ADI-67450
  Kd: 2 nM
ADI-67445
  Kd: 1.1 nM
ADI-67447
  Kd: 1.3 nM
ADI-26909
  Kd: 1.3 nM
ADI-26913 IgG
  Kd: 1.9 nM
ADI-26921 IgG
  Kd: 0.96 nM
ADI-26916 IgG
  binding result: binds
ADI-26912
  Kd: 52 nM
ADI-26924
  Kd: 1.1 nM
ADI-26915
  binding result: binds
ADI-26943
  Kd: 0.65 nM
ADI-48587
  Kd: 20 nM
ADI-48650
  Kd: 40 nM
ADI-74965
  Kd: 18 nM
ADI-74966
  binding result: binds
ADI-74967
  Kd: 1.9 nM
ADI-74968
  Kd: 8.2 nM
ADI-76357
  Kd: 0.96 nM
ADI-76358
  binding result: binds
ADI-76359
  Kd: 0.24 nM
ADI-76360
  Kd: 1.7 nM
ADI-76361
  Kd: 0.91 nM
ADI-76362
  Kd: 2 nM
ADI-22523 Fab
  Kd: 9.59 nM
ADI-22523 IgG
  Kd: 0.59 nM
ADI-26906 IgG
  Kd: 0.3 nM
ADI-26919
  Kd: 0.35 nM
ADI-26920 IgG
  Kd: 0.24 nM
